This note sets out measurements from patent publication US20240181056A1, “CHIMERIC ANTIGEN RECEPTOR (CAR)-T CELLS” (Imperial College Innovations Limited, priority 2021, published 2024).

Assay [1] has as its target TCR Vbeta 7.1 chain (H. sapiens rearranged TCR Vbeta 7.1) (human). The assay can be described thus: cell-based or functional assay.
In assay [2] the target is CD4 antigen (T-cell surface glycoprotein CD4 [Homo sapiens]) (human) (UniProt P01730). Nature of the assay: cell-based or functional assay.
The test system of assay [3] is T cells transduced with CART4 (tEGFR high cells). The assay can be described thus: In vitro suicide assay (iC9 safety switch, CID-induced apoptosis). Type of assay: cell-based, human. The protocol: CART4 with or without iC9 cells were generated with retroviral transduction with CART4 or CART4 w/o iC9 construct. CAR-T cells were kept expanded for five to seven days after transduction. A […] (CID), the B/B homodimerizer AP20187 (Clontech Laboratories), was added at a various concentration to T cell culture. The induction of apoptosis induced by CID was evaluated 24 hr later using Annexin-v/7-AAD (BD Biosciences) staining and flow cytometry analysis. Survival cells were quantified by counting beads (BD Biosciences). Survival index was calculated as follows: number of living tEGFR^+ cells/number of living tEGFR^+ cells in untreated control samples.
In order to evaluate the efficiency of iC9 safety switch in vitro, a CART4 variation without the iC9 gene (CART4 w/o iC9) was cloned as a control. T cells transduced with CART4 or CART4 without iC9 construct were exposed to increasing concentrations of the CID AP20187 (0.1 nM to 100 nM) for 24 hours. Cell death was accessed by flow cytometry analysis with 7AAD and Annexin-V. The tEGFR-positive percentage in the survived population dropped along with the increasing concentration of the CID. […] Consistent with the observations from other studies, the cells that escape killing were those expressing low levels of the transgene with a 50% reduction in mean fluorescence intensity (MFI) of tEGFR after CID (FIG. 1E). […]

Chain of TCR Vbeta 7.1 chain (H. sapiens rearranged TCR Vbeta 7.1) (human) (A0A577 whole entry, form in doubt): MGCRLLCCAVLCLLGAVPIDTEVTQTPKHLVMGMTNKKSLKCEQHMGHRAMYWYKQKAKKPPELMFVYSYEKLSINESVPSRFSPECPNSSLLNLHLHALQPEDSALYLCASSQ

The compound “CART20 chimeric antigen receptor (anti-CD20 CAR with scFv of monoclonal antibody Leu16)” displayed a TCR Vβ7.1-positive cells remaining after transduction with control CAR (flow cytometry) in assay [1] of 1.2%. For the same compound, the CD4-positive cells remaining after transduction with control CAR (flow cytometry) in assay [2] stood at 45%.
In the case of `CC[C@H](C(=O)N1CCCC[C@H]1C(=O)O[C@H](CCc1ccc(OC)c(OC)c1)c1cccc(OCC(=O)NCC(CNC(=O)COc2cccc([C@@H](CCc3ccc(OC)c(OC)c3)OC(=O)[C@@H]3CCCCN3C(=O)[C@@H](CC)c3cc(OC)c(OC)c(OC)c3)c2)CN(C)C)c1)c1cc(OC)c(OC)c(OC)c1` [AP20187], in assay [3] (after CID), the “reduction in mean fluorescence intensity (MFI) of tEGFR in cells that escape killing” value was 50%. The “tEGFR high cells eliminated” value in assay [3] (single 100 nM dose of CID, 24 hours, flow cytometry 7AAD/Annexin-V) turned out to be 69.1%.
